The values below come from patent US20100325744A1.

Where only a bound is given, the exact number is not on record here.

The target in assay [1] is 2F8-HG-T234A (human). The assay can be described thus: self-association of HG half-molecules; non-covalent nano-electrospray mass spectrometry.
Assay [2] has as its target 2F8-HG-F273A (human). Nature of the assay: self-association; non-covalent nano-electrospray mass spectrometry at 0.01-10 µM.
Assay [3] deals with 2F8-HG-F273A (human). The assay can be described thus: self-association of HG half-molecules; non-covalent nano-electrospray mass spectrometry.
The target in assay [4] is 2F8-HG-F273L (human). Described as above.
For assay [5], the target named is 2F8-HG-L236V (human). The assay can be described thus: self-association; non-covalent nano-electrospray mass spectrometry at 0.01-10 µM.
The target of assay [6] is 2F8-HG-L236V (human). Nature of the assay: self-association of HG half-molecules; non-covalent nano-electrospray mass spectrometry.
For assay [7], the target named is 2F8-HG-L236A (human). Described as above.
Assay [8] deals with 2F8-HG-Y275A (human). Nature of the assay: self-association; non-covalent nano-electrospray mass spectrometry at 0.01-10 µM.
In assay [9] the target is 2F8-HG-Y275A (human). The assay can be described thus: self-association of HG half-molecules; non-covalent nano-electrospray mass spectrometry.

B1: 2F8-HG-T234A (antibody, part only; not given: 2F8 variable domains, not shown: a dimerising Fc or GST)
heavy, part: ASTKGPSVFPLAPCSRSTSESTAALGCLVKDYFPEPVTVSWNSGALTSGVHTFPAVLQSSGLYSLSSVVTVPSSSLGTKTYTCNVDHKPSNTKVDKRVAPEFLGGPSVFLFPPKPKDTLMISRTPEVTCVVVDVSQEDPEVQFNWYVDGVEVHNAKTKPREEQFNSTYRVVSVLTVLHQDWLNGKEYKCKVSNKGLPSSIEKTISKAKGQPREPQVYTLPPSQEEMTKNQVSLACLVKGFYPSDIAVEWESNGQPENNYKTTPPVLDSDGSFFLYSRLTVDKSRWQEGNVFSCSVMHEALHNHYTQKSLSLSLGK
Turning to B1, the percentage molecules present as monomers in assay [1] is more than 80%.

B2: 2F8-HG-F273A (antibody, part only; not given: 2F8 variable domains, not shown: a dimerising Fc or GST)
heavy, part: ASTKGPSVFPLAPCSRSTSESTAALGCLVKDYFPEPVTVSWNSGALTSGVHTFPAVLQSSGLYSLSSVVTVPSSSLGTKTYTCNVDHKPSNTKVDKRVAPEFLGGPSVFLFPPKPKDTLMISRTPEVTCVVVDVSQEDPEVQFNWYVDGVEVHNAKTKPREEQFNSTYRVVSVLTVLHQDWLNGKEYKCKVSNKGLPSSIEKTISKAKGQPREPQVYTLPPSQEEMTKNQVSLTCLVKGFYPSDIAVEWESNGQPENNYKTTPPVLDSDGSFALYSRLTVDKSRWQEGNVFSCSVMHEALHNHYTQKSLSLSLGK
Molecule B2 had a percentage monomeric at low concentrations in assay [2] of 100%. This molecule had a percentage molecules present as monomers in [3] of more than 80%.

B3: 2F8-HG-F273L (antibody, part only; not given: 2F8 variable domains, not shown: a dimerising Fc or GST)
heavy, part: ASTKGPSVFPLAPCSRSTSESTAALGCLVKDYFPEPVTVSWNSGALTSGVHTFPAVLQSSGLYSLSSVVTVPSSSLGTKTYTCNVDHKPSNTKVDKRVAPEFLGGPSVFLFPPKPKDTLMISRTPEVTCVVVDVSQEDPEVQFNWYVDGVEVHNAKTKPREEQFNSTYRVVSVLTVLHQDWLNGKEYKCKVSNKGLPSSIEKTISKAKGQPREPQVYTLPPSQEEMTKNQVSLTCLVKGFYPSDIAVEWESNGQPENNYKTTPPVLDSDGSFLLYSRLTVDKSRWQEGNVFSCSVMHEALHNHYTQKSLSLSLGK
In [4], B3 showed a percentage molecules present as monomers of more than 80%.

B4: 2F8-HG-L236V (antibody, part only; not given: 2F8 variable domains, not shown: a dimerising Fc or GST)
heavy, part: ASTKGPSVFPLAPCSRSTSESTAALGCLVKDYFPEPVTVSWNSGALTSGVHTFPAVLQSSGLYSLSSVVTVPSSSLGTKTYTCNVDHKPSNTKVDKRVAPEFLGGPSVFLFPPKPKDTLMISRTPEVTCVVVDVSQEDPEVQFNWYVDGVEVHNAKTKPREEQFNSTYRVVSVLTVLHQDWLNGKEYKCKVSNKGLPSSIEKTISKAKGQPREPQVYTLPPSQEEMTKNQVSLTCVVKGFYPSDIAVEWESNGQPENNYKTTPPVLDSDGSFFLYSRLTVDKSRWQEGNVFSCSVMHEALHNHYTQKSLSLSLGK
As for B4, the percentage monomeric at low concentrations in assay [5] turned out to be 100%. In assay [6], this molecule registered a percentage molecules present as monomers of more than 80%.

B5: 2F8-HG-L236A (antibody, part only; not given: 2F8 variable domains, not shown: a dimerising Fc or GST)
heavy, part: ASTKGPSVFPLAPCSRSTSESTAALGCLVKDYFPEPVTVSWNSGALTSGVHTFPAVLQSSGLYSLSSVVTVPSSSLGTKTYTCNVDHKPSNTKVDKRVAPEFLGGPSVFLFPPKPKDTLMISRTPEVTCVVVDVSQEDPEVQFNWYVDGVEVHNAKTKPREEQFNSTYRVVSVLTVLHQDWLNGKEYKCKVSNKGLPSSIEKTISKAKGQPREPQVYTLPPSQEEMTKNQVSLTCAVKGFYPSDIAVEWESNGQPENNYKTTPPVLDSDGSFFLYSRLTVDKSRWQEGNVFSCSVMHEALHNHYTQKSLSLSLGK
B5 displayed a percentage molecules present as monomers in [7] of more than 80%.

B6: 2F8-HG-Y275A (antibody, part only; not given: 2F8 variable domains, not shown: a dimerising Fc or GST)
heavy, part: ASTKGPSVFPLAPCSRSTSESTAALGCLVKDYFPEPVTVSWNSGALTSGVHTFPAVLQSSGLYSLSSVVTVPSSSLGTKTYTCNVDHKPSNTKVDKRVAPEFLGGPSVFLFPPKPKDTLMISRTPEVTCVVVDVSQEDPEVQFNWYVDGVEVHNAKTKPREEQFNSTYRVVSVLTVLHQDWLNGKEYKCKVSNKGLPSSIEKTISKAKGQPREPQVYTLPPSQEEMTKNQVSLTCLVKGFYPSDIAVEWESNGQPENNYKTTPPVLDSDGSFFLASRLTVDKSRWQEGNVFSCSVMHEALHNHYTQKSLSLSLGK
Take B6: the percentage monomeric at low concentrations in [8] stood at 100%. Further, the percentage molecules present as monomers in assay [9] was more than 80%.
